T1: human CD19 (human, UniProt P15391 20-556)
T1 construct: also called B-cell surface antigen B4; B-cell antigen CD19
T1 sequence: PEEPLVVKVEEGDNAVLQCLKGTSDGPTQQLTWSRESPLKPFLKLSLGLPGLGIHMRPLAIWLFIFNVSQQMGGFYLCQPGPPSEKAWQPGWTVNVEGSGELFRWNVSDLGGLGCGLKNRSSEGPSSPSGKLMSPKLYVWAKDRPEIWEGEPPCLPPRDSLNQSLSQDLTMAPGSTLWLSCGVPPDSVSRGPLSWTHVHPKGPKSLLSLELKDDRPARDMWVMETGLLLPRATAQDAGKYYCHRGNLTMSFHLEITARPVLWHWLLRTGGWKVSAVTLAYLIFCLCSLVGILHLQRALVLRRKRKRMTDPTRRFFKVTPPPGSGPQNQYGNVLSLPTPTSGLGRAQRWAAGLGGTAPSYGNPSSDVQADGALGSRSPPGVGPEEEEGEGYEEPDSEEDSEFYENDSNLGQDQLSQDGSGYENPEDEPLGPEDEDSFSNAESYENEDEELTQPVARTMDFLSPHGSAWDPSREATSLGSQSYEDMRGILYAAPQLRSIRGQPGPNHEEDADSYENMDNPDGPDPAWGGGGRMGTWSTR


The binders below were run against T1, human CD19 (assay: DELFIA competition on Raji cells: unlabeled antibody competes with Eu-labeled anti-CD19 for surface CD19 [lower panel]).

Binder	IC50 (read off the curve) [nM]	binding result
H1L3 (antibody, V domains shown, also called 4G7 H1L3) VH: EVQLVESGGGLVKPGGSLKLSCAASGYTFTSYVMHWVRQAPGKGLEWIGYINPYNDGTKYNEKFQGRVTISSDKSISTAYMELSSLRSEDTAMYYCARGTYYYGSRVFDYWGQGTLVTVSS VL: DIVMTQSPATLSVSPGERATISCRSSKSLLNSNGNTYLYWFLQKPGQSPQLLIYRMSNLASGVPDRFSGSGSGTDFTLTISRVEAEDVGVYYCMQHLEYPFTFGAGTKLEIK	~20	–
H3L3 (antibody, V domains shown, also called 4G7 H3L3) VH: EVQLVESGGGLVQPGRSLRLSCAASGYTFTSYVMHWVRQMPGKGLEWMGYINPYNDGTKYNEKFQGRVTITSDKSTSTAYMELSRLRSDDTAVYYCARGTYYYGSRVFDYWGQGTLVTVSS VL: DIVMTQSPATLSVSPGERATISCRSSKSLLNSNGNTYLYWFLQKPGQSPQLLIYRMSNLASGVPDRFSGSGSGTDFTLTISRVEAEDVGVYYCMQHLEYPFTFGAGTKLEIK	~20	–
H4L0 (antibody, V domains shown, also called 4G7 H4L0) VH: EVQLQQSGPEVKKPGTSVKVSCKASGYTFTSYVMHWVRQAPGKGLVWVSYINPYNDGTKYNESLKSRVTISSDKSISTAYLQMNSLRAEDTAVYYCARGTYYYGSRVFDYWGQGTLVTVSS VL: DIVMTQAAPSIPVTPGESVSISCRSSKSLLNSNGNTYLYWFLQRPGQSPQLLIYRMSNLASGVPDRFSGSGSGTAFTLRISRVEAEDVGVYYCMQHLEYPFTFGAGTKLELK	~10	–

Results, then the binder that gave them:

IC50 (read off the curve) [nM]	binding result	Binder
–	binds	H4L3 (antibody, V domains shown, also called 4G7 H4L3) VH: EVQLQQSGPEVKKPGTSVKVSCKASGYTFTSYVMHWVRQAPGKGLVWVSYINPYNDGTKYNESLKSRVTISSDKSISTAYLQMNSLRAEDTAVYYCARGTYYYGSRVFDYWGQGTLVTVSS VL: DIVMTQSPATLSVSPGERATISCRSSKSLLNSNGNTYLYWFLQKPGQSPQLLIYRMSNLASGVPDRFSGSGSGTDFTLTISRVEAEDVGVYYCMQHLEYPFTFGAGTKLEIK
–	binds	H2L3 (antibody, V domains shown, also called 4G7 H2L3) VH: QVQLQESGSGLVKPGGSLRLSCAASGYTFTSYVMHWVRQAPGKGLEWMGYINPYNDGTKYNESLKSRVTISSDKSISTAYMELSSLRAEDTAVYYCARGTYYYGSRVFDYWGQGTLVTVSS VL: DIVMTQSPATLSVSPGERATISCRSSKSLLNSNGNTYLYWFLQKPGQSPQLLIYRMSNLASGVPDRFSGSGSGTDFTLTISRVEAEDVGVYYCMQHLEYPFTFGAGTKLEIK
~10	–	H3L2 (antibody, V domains shown, also called 4G7 H3L2) VH: EVQLVESGGGLVQPGRSLRLSCAASGYTFTSYVMHWVRQMPGKGLEWMGYINPYNDGTKYNEKFQGRVTITSDKSTSTAYMELSRLRSDDTAVYYCARGTYYYGSRVFDYWGQGTLVTVSS VL: DIVMTQSPSSLSASVGDRVTISCRSSKSLLNSNGNTYLYWFQQKPGQSPQLLIYRMSNLASGVPDRFSGSGSGTEFTLTISSLQPEDVAVYYCMQHLEYPFTFGAGTKLEIK
~8	–	H0L0 (antibody, original 4G7 variable regions; also called 4G7 H0L0) heavy chain: EVQLQQSGPELIKPGASVKMSCKASGYTFTSYVMHWVKQKPGQGLEWIGYINPYNDGTKYNEKFKGKATLTSDKSSSTAYMELSSLTSEDSAVYYCARGTYYYGSRVFDYWGQGTTLTVSS light chain: DIVMTQAAPSIPVTPGESVSISCRSSKSLLNSNGNTYLYWFLQRPGQSPQLLIYRMSNLASGVPDRFSGSGSGTAFTLRISRVEAEDVGVYYCMQHLEYPFTFGAGTKLELK

These binders were tested against T1, human CD19 (assay: DELFIA competition on Raji cells: unlabeled antibody competes with Eu-labeled anti-CD19 for surface CD19 [upper panel]).

Binder	binding result	IC50 (read off the curve) [nM]
H2L2 (antibody, V domains shown, also called 4G7 H2L2) VH: QVQLQESGSGLVKPGGSLRLSCAASGYTFTSYVMHWVRQAPGKGLEWMGYINPYNDGTKYNESLKSRVTISSDKSISTAYMELSSLRAEDTAVYYCARGTYYYGSRVFDYWGQGTLVTVSS VL: DIVMTQSPSSLSASVGDRVTISCRSSKSLLNSNGNTYLYWFQQKPGQSPQLLIYRMSNLASGVPDRFSGSGSGTEFTLTISSLQPEDVAVYYCMQHLEYPFTFGAGTKLEIK	binds	–
H3L1 (antibody, V domains shown, also called 4G7 H3L1) VH: EVQLVESGGGLVQPGRSLRLSCAASGYTFTSYVMHWVRQMPGKGLEWMGYINPYNDGTKYNEKFQGRVTITSDKSTSTAYMELSRLRSDDTAVYYCARGTYYYGSRVFDYWGQGTLVTVSS VL: DIVMTQSPATLSLSPGERATLSCRSSKSLLNSNGNTYLYWFQQKPGQSPQLLIYRMSNLASGVPDRFSGSGSGTEFTLTISSLEPEDFAVYYCMQHLEYPFTFGAGTKLEIK	binds	–
H1L0 (antibody, V domains shown, also called 4G7 H1L0) VH: EVQLVESGGGLVKPGGSLKLSCAASGYTFTSYVMHWVRQAPGKGLEWIGYINPYNDGTKYNEKFQGRVTISSDKSISTAYMELSSLRSEDTAMYYCARGTYYYGSRVFDYWGQGTLVTVSS VL: DIVMTQAAPSIPVTPGESVSISCRSSKSLLNSNGNTYLYWFLQRPGQSPQLLIYRMSNLASGVPDRFSGSGSGTAFTLRISRVEAEDVGVYYCMQHLEYPFTFGAGTKLELK	–	~20
H0L1 (antibody, V domains shown, also called 4G7 H0L1) VH: EVQLQQSGPELIKPGASVKMSCKASGYTFTSYVMHWVKQKPGQGLEWIGYINPYNDGTKYNEKFKGKATLTSDKSSSTAYMELSSLTSEDSAVYYCARGTYYYGSRVFDYWGQGTTLTVSS VL: DIVMTQSPATLSLSPGERATLSCRSSKSLLNSNGNTYLYWFQQKPGQSPQLLIYRMSNLASGVPDRFSGSGSGTEFTLTISSLEPEDFAVYYCMQHLEYPFTFGAGTKLEIK	–	~3
H0L3 (antibody, V domains shown, also called 4G7 H0L3) VH: EVQLQQSGPELIKPGASVKMSCKASGYTFTSYVMHWVKQKPGQGLEWIGYINPYNDGTKYNEKFKGKATLTSDKSSSTAYMELSSLTSEDSAVYYCARGTYYYGSRVFDYWGQGTTLTVSS VL: DIVMTQSPATLSVSPGERATISCRSSKSLLNSNGNTYLYWFLQKPGQSPQLLIYRMSNLASGVPDRFSGSGSGTDFTLTISRVEAEDVGVYYCMQHLEYPFTFGAGTKLEIK	–	~3
H3L0 (antibody, V domains shown, also called 4G7 H3L0) VH: EVQLVESGGGLVQPGRSLRLSCAASGYTFTSYVMHWVRQMPGKGLEWMGYINPYNDGTKYNEKFQGRVTITSDKSTSTAYMELSRLRSDDTAVYYCARGTYYYGSRVFDYWGQGTLVTVSS VL: DIVMTQAAPSIPVTPGESVSISCRSSKSLLNSNGNTYLYWFLQRPGQSPQLLIYRMSNLASGVPDRFSGSGSGTAFTLRISRVEAEDVGVYYCMQHLEYPFTFGAGTKLELK	binds	–

Further lines, results first:

binding result	IC50 (read off the curve) [nM]	Binder
–	~5	H0L0 (antibody, original 4G7 variable regions; also called 4G7 H0L0) heavy chain: EVQLQQSGPELIKPGASVKMSCKASGYTFTSYVMHWVKQKPGQGLEWIGYINPYNDGTKYNEKFKGKATLTSDKSSSTAYMELSSLTSEDSAVYYCARGTYYYGSRVFDYWGQGTTLTVSS light chain: DIVMTQAAPSIPVTPGESVSISCRSSKSLLNSNGNTYLYWFLQRPGQSPQLLIYRMSNLASGVPDRFSGSGSGTAFTLRISRVEAEDVGVYYCMQHLEYPFTFGAGTKLELK
binds	–	H2L0 (antibody, V domains shown, also called 4G7 H2L0) VH: QVQLQESGSGLVKPGGSLRLSCAASGYTFTSYVMHWVRQAPGKGLEWMGYINPYNDGTKYNESLKSRVTISSDKSISTAYMELSSLRAEDTAVYYCARGTYYYGSRVFDYWGQGTLVTVSS VL: DIVMTQAAPSIPVTPGESVSISCRSSKSLLNSNGNTYLYWFLQRPGQSPQLLIYRMSNLASGVPDRFSGSGSGTAFTLRISRVEAEDVGVYYCMQHLEYPFTFGAGTKLELK
–	~2	H0L2 (antibody, V domains shown, also called 4G7 H0L2) VH: EVQLQQSGPELIKPGASVKMSCKASGYTFTSYVMHWVKQKPGQGLEWIGYINPYNDGTKYNEKFKGKATLTSDKSSSTAYMELSSLTSEDSAVYYCARGTYYYGSRVFDYWGQGTTLTVSS VL: DIVMTQSPSSLSASVGDRVTISCRSSKSLLNSNGNTYLYWFQQKPGQSPQLLIYRMSNLASGVPDRFSGSGSGTEFTLTISSLQPEDVAVYYCMQHLEYPFTFGAGTKLEIK
